Measured values: patent US20210130436A1 (published 2021)
Substitutions are numbered along the chain they refer to. Names and notes keep the numbering of the source.

B1: E24D/Q27R/E35D/T41S/M47V/L85Q CD80 IgV-Fc (Fc fusion, not shown: a dimerising Fc or GST)
chain: VIHVTKEVKEVATLSCGHNVSVEDLARTRIYWQKDKKMVLSMMSGDVNIWPEYKNRTIFDITNNLSIVILALRPSDEGTYECVVQKYEKDAFKREHLAEVTLSVKAD
B2: H18Y/V22A/E35D/T41S/M47V/T62N/A71G/A91G CD80 IgV-Fc (Fc fusion, not shown: a dimerising Fc or GST)
chain: B1 chain with H18Y, V22A, D24E, R27Q, T62N, A71G, Q85L, A91G
B3: S15T/H18Y/E35D/M47V/T62A/N64S/A71G/L85Q/D90N CD80 IgV-Fc (Fc fusion, not shown: a dimerising Fc or GST)
chain: B1 chain with S15T, H18Y, D24E, R27Q, S41T, T62A, N64S, A71G, D90N
B4: E35D/M47L/V68M/A71G/L85Q/D90G CD80 IgV-Fc (Fc fusion, not shown: a dimerising Fc or GST)
chain: B1 chain with D24E, R27Q, S41T, V47L, V68M, A71G, D90G
B5: variant CD80 IgV-Fc H18Y/V22D/E35D/M47V/N48K/V68M (Fc fusion, not shown: small tags and cut ends; a dimerising Fc or GST)
chain: B1 chain with H18Y, V22D, D24E, R27Q, S41T, N48K, V68M, Q85L
B6: variant CD80 IgV-Fc H18Y/E35D/V68M/T79M/L85M (Fc fusion, not shown: small tags and cut ends; a dimerising Fc or GST)
chain: B1 chain with H18Y, D24E, R27Q, S41T, V47M, V68M, T79M, Q85M
B7: Q33R/M47V/T62N/A71G CD80 IgV-Fc (Fc fusion, not shown: a dimerising Fc or GST)
chain: B1 chain with D24E, R27Q, Q33R, D35E, S41T, T62N, A71G, Q85L
B8: E35D/D46E/M47L/V68M/L85Q/F92L CD80 IgV-Fc (Fc fusion, not shown: a dimerising Fc or GST)
chain: B1 chain with D24E, R27Q, S41T, D46E, V47L, V68M, F92L

target: T1, human CD28 (human, UniProt P10747 19-220); assay: flow cytometry, Jurkat/IL2 reporter cells (endogenous CD28), 33.3 nM, PE anti-human Fc
T1 construct: whole, on cells; Endogenous CD28 of Jurkat/IL2 reporter cells

Binder | Fold change to WT | MFI at 33.3 nM
B1 | 1.6 fold | 66 MFI
B2 | 38.5 fold | 1590 MFI
B3 | 25.9 fold | 1070 MFI
B4 | 33.9 fold | 1400 MFI

target: T2, human CTLA4 (huCTLA4), full-length, stably expressed on CHO cells (human, UniProt P16410 36-223); assay: flow cytometry, CHO cells expressing huCTLA4
T2 construct: whole, on cells
T2 sequence (P16410 36-223): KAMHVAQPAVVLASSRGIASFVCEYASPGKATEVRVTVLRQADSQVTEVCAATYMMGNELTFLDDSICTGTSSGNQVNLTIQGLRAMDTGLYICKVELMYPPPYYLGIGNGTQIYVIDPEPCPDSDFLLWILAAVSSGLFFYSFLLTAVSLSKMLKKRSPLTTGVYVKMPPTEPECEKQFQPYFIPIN

Binder | MFI at 33.3 nM
B5 | 15800 MFI
B6 | 16300 MFI

target: T3, human PD-L1 (human, UniProt Q9NZQ7 19-290); assay: flow cytometry, CHO cells stably expressing huPD-L1, 33.3 nM, PE anti-human Fc
T3 construct: whole, on cells; also called huPD-L1
T3 sequence (Q9NZQ7 19-290): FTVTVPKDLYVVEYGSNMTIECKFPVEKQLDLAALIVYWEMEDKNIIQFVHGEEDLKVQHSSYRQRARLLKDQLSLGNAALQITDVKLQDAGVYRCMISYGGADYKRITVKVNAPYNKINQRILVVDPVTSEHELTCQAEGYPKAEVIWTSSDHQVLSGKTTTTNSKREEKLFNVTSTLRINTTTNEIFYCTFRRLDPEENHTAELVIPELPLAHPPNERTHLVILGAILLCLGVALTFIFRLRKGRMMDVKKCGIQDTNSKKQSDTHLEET

Binder | Fold change to WT | MFI at 33.3 nM
B1 | 34.3 fold | 2860 MFI
B7 | 146 fold | 12200 MFI
B2 | 101 fold | 8460 MFI
B8 | 158 fold | 13200 MFI
B3 | 166 fold | 13900 MFI
B4 | 202 fold | 16800 MFI

target: T4, human PD-L1 (huPD-L1), full-length, stably expressed on CHO cells (human, UniProt Q9NZQ7 19-290); assay: flow cytometry, CHO cells expressing huPD-L1
T4 construct: whole, on cells
T4 sequence (Q9NZQ7 19-290): as above

Binder | MFI at 33.3 nM
B5 | 12900 MFI
B6 | 14900 MFI

target: T5, human CTLA-4 (human, UniProt P16410 36-223); assay: flow cytometry, CHO cells stably expressing huCTLA4, 33.3 nM, PE anti-human Fc
T5 construct: whole, on cells; also called huCTLA4
T5 sequence (P16410 36-223): as the sequence (P16410 36-223) above

Binder | Fold change to WT CD80 | MFI at 33.3 nM
B1 | 13.5 fold | 13900 MFI
B7 | 0.3 fold | 308 MFI
B2 | 10 fold | 10300 MFI
B8 | 0.2 fold | 214 MFI
B3 | 10.7 fold | 11000 MFI
B4 | 10.1 fold | 10300 MFI

target: T4, human PD-L1 (huPD-L1), full-length, …; assay: flow cytometry, CHO cells expressing huPD-L1; MFI against WT CD80 of the table

Binder | Fold change to WT CD80
B5 | 250 fold
B6 | 290 fold

target: T3, human PD-L1; assay: flow cytometry; MFI on CHO/PD-L1 over MFI on Jurkat (CD28), 33.3 nM

Binder | Ratio of PDL1:CD28
B1 | 44 ratio
B7 | 719 ratio
B2 | 5 ratio
B8 | 863 ratio
B3 | 13 ratio
B4 | 12 ratio

target: T6, CD28, endogenously expressed on Jurkat/IL2 reporter cells (human, UniProt P10747 19-220); assay: flow cytometry, Jurkat/IL2 reporter cells (endogenous CD28); MFI against WT CD80 of the table
T6 construct: whole, on cells

Binder | Fold change to WT CD80
B5 | 8.2 fold
B6 | 33.2 fold

target: T2, human CTLA4 (huCTLA4), full-length, …; assay: flow cytometry, CHO cells expressing huCTLA4; MFI against WT CD80 of the table

Binder | Fold change to WT CD80
B5 | 9 fold
B6 | 9.3 fold

target: T6, CD28, endogenously expressed on …; assay: flow cytometry, Jurkat/IL2 reporter cells (endogenous CD28)

Binder | MFI at 33.3 nM
B5 | 257 MFI
B6 | 1040 MFI

target: T4, human PD-L1 (huPD-L1), full-length, …; assay: flow cytometry; MFI on PD-L1 CHO cells over MFI on Jurkat cells (CD28)

Binder | Ratio of PDL1:CD28
B5 | 50.1 ratio
B6 | 14.3 ratio
